Publication PMC3881179
Like-named read-outs stand apart in the source and are kept apart here.

What was measured:
STING C-terminal region [1] = molecular target: T1, STING C-terminal region (UniProt Q86WV6 181-379); assay: SPR
[2] = molecular target: T2, STING C-terminal region (hSTING-C) (human, UniProt Q86WV6 152-379); assay: fluorescence anisotropy
[3] = molecular target: T2, STING C-terminal region (hSTING-C); assay: fluorescence anisotropy; remark: listed apart in the source
STING C-terminal region [4] = molecular target: T1, STING C-terminal region; assay: pull-down

T2 sequence (Q86WV6 152-379): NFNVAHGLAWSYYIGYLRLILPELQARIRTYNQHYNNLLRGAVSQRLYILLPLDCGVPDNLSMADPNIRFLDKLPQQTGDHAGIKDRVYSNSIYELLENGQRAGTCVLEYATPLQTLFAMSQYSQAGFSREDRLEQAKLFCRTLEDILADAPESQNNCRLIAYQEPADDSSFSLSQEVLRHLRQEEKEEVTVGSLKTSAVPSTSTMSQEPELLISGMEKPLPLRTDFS
T1 sequence (Q86WV6 181-379): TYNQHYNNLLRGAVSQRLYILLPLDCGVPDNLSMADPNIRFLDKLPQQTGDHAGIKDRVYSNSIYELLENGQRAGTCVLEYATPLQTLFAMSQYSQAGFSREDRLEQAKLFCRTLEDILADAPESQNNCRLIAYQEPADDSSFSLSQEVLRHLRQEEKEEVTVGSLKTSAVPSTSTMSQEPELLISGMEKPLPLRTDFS

B1: dsDNA90 (dsDNA)
DNA 1: TACAGATCTACTAGTGATCTATGACTGATCTGTACATGATCTACATACAGATCTACTAGTGATCTATGACTGATCTGTACATGATCTACA
DNA 2: TGTAGATCATGTACAGATCAGTCATAGATCACTAGTAGATCTGTATGTAGATCATGTACAGATCAGTCATAGATCACTAGTAGATCTGTA
For B1, the Kd (STING C-terminal region [1]) was 13.7 µM.

B2: dsDNA 30-mer (dsDNA)
DNA 1: TACAGATCTACTAGTGATCTATGACTGATC
DNA 2: GATCAGTCATAGATCACTAGTAGATCTGTA
Binder B2 has a Kd [2] of 247 ± 38 µM.

B3: dsDNA 18-mer (dsDNA)
DNA 1: TACAGATCTACTAGTGAT
DNA 2: ATCACTAGTAGATCTGTA
With B3 the Kd [3] was 337 ± 26 µM.

B4: ssDNA90 (ssDNA)
DNA: TACAGATCTACTAGTGATCTATGACTGATCTGTACATGATCTACATACAGATCTACTAGTGATCTATGACTGATCTGTACATGATCTACA
B4: binds (STING C-terminal region [4]).
